Reference: paper PMC4864278 (The EMBO Journal, 2016)
Each block holds one binder with its values, some of them ahead of it.

Key:
[1] = molecular target: the molecule itself; test: SAXS; SEC in line with SAXS, SWING beamline at SOLEIL, SEC-3 300 Å Agilent column, 15°C; 2.5 mg/ml TRIM25 RBCC, 6 mg/ml TRIM32 RBCC injected
[2] = molecular target: the molecule itself; test: SAXS; batch SAXS, Diamond Light Source beamline B21; at least three dilutions of each construct; concentrations as in Table 2
ubiquitin = ubiquitin (bovine, UniProt P0CG53 1-76, isopeptide-linked to UBE2D1); test: crystal structure; TRIM25 RING domain (8 mg/ml) mixed with isopeptide-linked UBE2D1-Ub (10 mg/ml) at a 1:1 molar ratio; 100 mM Tris pH 8.5, 10% PEG 20,000, 18°C; 2.34 Å; settings: both partners purified

B1: TRIM25 RBCC (1–433) (domain or fragment, UniProt Q14258 1-433, looked up)
chain: MAELCPLAEELSCSICLEPFKEPVTTPCGHNFCGSCLNETWAVQGSPYLCPQCRAVYQARPQLHKNTVLCNVVEQFLQADLAREPPADVWTPPARASAPSPNAQVACDHCLKEAAVKTCLVCMASFCQEHLQPHFDSPAFQDHPLQPPVRDLLRRKCSQHNRLREFFCPEHSECICHICLVEHKTCSPASLSQASADLEATLRHKLTVMYSQINGASRALDDVRNRQQDVRMTANRKVEQLQQEYTEMKALLDASETTSTRKIKEEEKRVNSKFDTIYQILLKKKSEIQTLKEEIEQSLTKRDEFEFLEKASKLRGISTKPVYIPEVELNHKLIKGIHQSTIDLKNELKQCIGRLQEPTPSSGDPGEHDPASTHKSTRPVKKVSKEEKKSKKPPPVPALPSKLPTFGAPEQLVDLKQAGLEAAAKATSSHPNS
stoichiometry N [1]: 2

B2: TRIM32 RING/B-box2 (1–140) (domain or fragment, UniProt Q13049 1-140, looked up)
chain: MAAAAASHLNLDALREVLECPICMESFTEEQLRPKLLHCGHTICRQCLEKLLASSINGVRCPFCSKITRITSLTQLTDNLTVLKIIDTAGLSEAVGLLMCRSCGRRLPRQFCRSCGLVLCEPCREADHQPPGHCTLPVKE
stoichiometry N [2]: 2

B3: TRIM32 RBCC (1–354) (domain or fragment, UniProt Q13049 1-354, looked up)
chain: MAAAAASHLNLDALREVLECPICMESFTEEQLRPKLLHCGHTICRQCLEKLLASSINGVRCPFCSKITRITSLTQLTDNLTVLKIIDTAGLSEAVGLLMCRSCGRRLPRQFCRSCGLVLCEPCREADHQPPGHCTLPVKEAAEERRRDFGEKLTRLRELMGELQRRKAALEGVSKDLQARYKAVLQEYGHEERRVQDELARSRKFFTGSLAEVEKSNSQVVEEQSYLLNIAEVQAVSRCDYFLAKIKQADVALLEETADEEEPELTASLPRELTLQDVELLKVGHVGPLQIGQAVKKPRTVNVEDSWAMEATASAASTSVTFREMDMSPEEVVASPRASPAKQRGPEAASNIQQ
stoichiometry N [1]: 4

binding result (ubiquitin): binds
B4: TRIM25 RING domain (1–82) (domain or fragment, UniProt Q14258 1-82, looked up)
chain: MAELCPLAEELSCSICLEPFKEPVTTPCGHNFCGSCLNETWAVQGSPYLCPQCRAVYQARPQLHKNTVLCNVVEQFLQADLA
